These results are taken from PMC5388508.

For experiment [1], the target named is integrin αIIbβ3 of human platelets (human (endogenous in platelets)) (UniProt P08514). Nature of the experiment: flow cytometry on cells. For orientation: A flow cytometer gives signals particle by particle.
Experiment [2] shares this target.

For orientation: IC50 means the midpoint of a concentration-inhibition curve. Higher therefore signals a need for much substance.

In experiment [1], “Rhodostomin (Rho), recombinant, ^48PRGDMP-^65PRYH (natural protein)” gave an IC50 of 90.8 nM. For the same substance, the IC50 of inhibition of platelet aggregation in experiment [2] came out at 83.2 nM.
